Source: paper PMC11257990 (2024)

Target: UBE2L3 (human, UniProt P68036 1-154)
Test: ITC

Sequence of UBE2L3 (P68036 whole entry): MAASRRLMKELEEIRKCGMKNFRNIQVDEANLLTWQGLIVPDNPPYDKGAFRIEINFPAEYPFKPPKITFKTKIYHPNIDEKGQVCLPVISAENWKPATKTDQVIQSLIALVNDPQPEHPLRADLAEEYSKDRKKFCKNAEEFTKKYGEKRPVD

Kd: 12 µM
B1: CUL9^ARIH-RBR (domain or fragment)
chain: SPEAVATLASLQLPAGRTMSPQEVEGLMKQTVRQVQETLNLEPDVAQHLLAHSHWGAEQLLQSYSEDPEPLLLAAGLCVHQAQAVPVRPDHCPVCVSPLGCDDDLPSLCCMHYCCKSCWNEYLTTRIEQNLVLNCTCPIADCPAQPTGAFIRAIVSSPEVISKYEKALLRGYVESCSNLTWCTNPQGCDRILCRQGLGCGTTCSKCGWASCFNCSFPEAHYPASCGHMSQWVDDGGYYDGMSVEAQSKHLAKLISKRCPSCQAPIEKNEGCLHMTCAKCNHGFCWRCLKSWKPNHKDYYNCSAMVSKAARQEKRFQDYNERCTFHHQAREFAVNLRNRVSAIHEVPPPRSFTFLNDACQGLEQARKVLAYACVYSFYSQDAEYMDVVEQQTENLELHTNALQILLEETLLRCRDLASSLRLLRADCLSTGMELLRRIQERLLAILQHSAQDFRVGLQSPSVEAWEAKGPNMPGSQPQASSGPEAEEEEEDDEDDVPEWQQDEFDEELDNDSFSYDESENLDQETFFFGDEEEDEDEAYD
